Results from paper PMC1075921 (Nucleic Acids Research, 2005).
Residue numbers refer to the chain shown, from its start. Numbers in names are those of the source. Values belong to the binder of their own block, whether it stands above or below them.

Biological target: transactivation domain of human p53 (residues 1–73) (human, UniProt P04637 1-73, R72)
Experiment: NMR titration

- mean intensity ratio (free/with partner) of p53TAD residues 42–56: 35 ± 34
B1: hRPA70_(1–168) Y118A mutant (domain or fragment)
chain: MVGQLSEGAIAAIMQKGDTNIKPILQVINIRPITTGNSPPRYRLLMSDGLNTLSSFMLATQLNPLVEEEQLSSNCVCQIHRFIVNTLKDGRRVVILMELEVLKSAEAVGVKIGNPVPANEGLGQPQVAPPAPAASPAASSRPQPQNGSSGMGSTVSKAYGASKTFGKA

- intensity ratio (free/with partner) of all p53TAD residues except I50-F54: < 2
- mean intensity ratio (free/with partner) of p53TAD residues I50-F54: 3.3 ± 1.7
B2: hRPA70_(1–168) R41E mutant (domain or fragment)
chain: B1 chain with R41E, A118Y
